Laboratory results reported in EP0488317A2.

Molecular target: Bovine thrombin (bovine) (UniProt P00735)
Test: cell-based or functional assay

Coagulation time, substance 17 nM, bovine fibrinogen 1 mg/ml, bovine thrombin 18 nM; control 28.1 sec: 29.6 s | IC50 of inhibition of coagulation of bovine fibrinogen (1 mg/ml) by bovine thrombin (18 nM): 80 nM | clotting time, human fibrinogen 2.5 mg/ml, bovine thrombin 0.5 U/ml, ATIII (+) (human antithrombin III 250 ug/ml); control 49.5 sec: 80.8 s | clotting time, human fibrinogen 2.5 mg/ml, bovine thrombin 0.5 U/ml, ATIII (-); control 43.3 sec: 61.8 s
Substance: r-UTM (from UniProt P07204 19-486)
